From the supplement of paper PMC10126150
± gives the standard deviation of the averaged measurements.

Tested on: ATP
Assay: switch fluorescence ratio, 500 uM ATP over buffer (Cy3 cluster intensity, sum of 5 cycles each) (fold (ratio)); higher = stronger signal-on switching upon ATP binding; sequences stand for … in TCGTCGGCAGCGTCAGATGTGTATAAGAGACAGTTTTTTTTTTTTTTTTTTTTTTTTT…TC
Conditions: aptamer strand: ATP DNA aptamer (quencher-CACCTGGGGGAGTATTGCGGAGGAAGG + anchor), 100 nM annealed; ATP concentration: 500 uM
Outline: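 Clusters carrying Cy3-labelled switching strands on a modified Illumina MiSeq flow-cell were annealed to 100 nM quencher-labelled ATP aptamer and imaged in selection buffer. They were imaged again after 15 min with 500 uM ATP at 22 °C, over five buffer/ATP cycles with NaOH stripping and re-annealing in between. For each cluster, the fluorescence ratio is the summed Cy3 intensity of the target cycles divided by that of the buffer cycles, averaged per switch-domain sequence. Clusters outside 100-1000 RFU were left out.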
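Further: ATP exposure 15 min at 22 °C before imaging.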

Sequence | switch fluorescence ratio
ATTAGATGAC | 1.02 ± 0.016
ATTAGCACGT | 1.023 ± 0.0031
ATTAGCCCGG | 0.9944 ± 0.00051
ATTAGCGAGA | 1.028 ± 0.0035
ATTAGGAAAG | 0.998 ± 0.028
ATTAGGACGT | 0.984 ± 0.032
ATTAGGGTCT | 0.986 ± 0.025
ATTAGGTTTC | 1.01 ± 0.062
ATTAGTAAGA | 0.975 ± 0.011
ATTAGTCCGG | 0.994 ± 0.03
ATTAGTCGCG | 1.01 ± 0.014
ATTAGTCGCT | 0.978 ± 0.019
ATTAGTGTCA | 1 ± 0.035
ATTAGTGTCG | 1.01 ± 0.046
ATTAGTGTGG | 1 ± 0.033
ATTAGTTCCG | 0.9814 ± 0.0025
ATTATAAGGT | 1.06 ± 0.0055
ATTATACAGC | 0.993 ± 0.025
ATTATACTGG | 1 ± 0.033
ATTATATCCC | 1.06 ± 0.026
ATTATATGGT | 0.98 ± 0.029
ATTATCGTAG | 0.994 ± 0.035
ATTATCTAAT | 1 ± 0.017
ATTATGGACG | 1.06 ± 0.073
ATTATGGGGG | 0.996 ± 0.036

Sequence | switch fluorescence ratio
ATTATGGGT | 0.9931 ± 0.0086
ATTATGGTTC | 1 ± 0.021
ATTATGTCTT | 0.9878 ± 0.0094
ATTATTATGG | 1.01 ± 0.015
ATTATTGATA | 0.997 ± 0.036
ATTATTGGCA | 0.999 ± 0.0024
ATTATTGGGC | 0.981 ± 0.035
ATTATTTTAC | 0.976 ± 0.036
ATTCAACGGT | 1.02 ± 0.0048
ATTCAAGCCT | 1.15 ± 0.047
ATTCACATAT | 1.11 ± 0.02
ATTCACGGGC | 1.08 ± 0.035
ATTCAGAGTG | 0.965 ± 0.02
ATTCAGATCG | 0.999 ± 0.034
ATTCAGTTAT | 0.997 ± 0.021
ATTCAGTTGG | 0.9776 ± 0.0071
ATTCATAGGT | 0.992 ± 0.014
ATTCATGCTC | 1.03 ± 0.031
ATTCATTGTC | 1.09 ± 0.11
ATTCCAAGTG | 1.03 ± 0.056
ATTCCCGGGG | 1.06 ± 0.059
ATTCCCGGTC | 1.01 ± 0.066
ATTCCGATTG | 1.07 ± 0.031
ATTCGGAATA | 1.06 ± 0.016
ATTCGGGAAG | 1.003 ± 0.0078

Sequence | switch fluorescence ratio
ATTCGGGACC | 0.973 ± 0.019
ATTCGGGGGT | 0.993 ± 0.023
ATTCGGTCGA | 0.976 ± 0.039
ATTCGTTCGA | 0.9955 ± 0.0033
ATTCGTTTGT | 0.9869 ± 0.0038
ATTCTACGGA | 1.02 ± 0.021
ATTCTAGGA | 0.985 ± 0.02
ATTCTAGGTA | 1 ± 0.015
ATTCTATATC | 0.97 ± 0.021
ATTCTCGTGG | 0.997 ± 0.036
ATTCTGATGC | 1.05 ± 0.0092
ATTCTGCGGA | 1.01 ± 0.019
ATTCTGGGGA | 0.988 ± 0.026
ATTCTGGTGG | 1.01 ± 0.046
ATTCTTTACA | 1.06 ± 0.014
ATTCTTTTGC | 1.03 ± 0.06
ATTGAAATCA | 0.987 ± 0.018
ATTGAACGGA | 1 ± 0.059
ATTGAAGCCT | 1.15 ± 0.013
ATTGAAGGCA | 0.966 ± 0.011
ATTGAAGTGC | 1.01 ± 0.02
ATTGAATAGG | 1.0089 ± 0.0003
ATTGAATTAG | 0.961 ± 0.011
ATTGACCCCT | 1.08 ± 0.015
ATTGACGATC | 0.994 ± 0.016

Sequence | switch fluorescence ratio
ATTGACGTAC | 1.76 ± 0.083
ATTGAGCGGT | 0.983 ± 0.039
ATTGAGGCTC | 0.985 ± 0.012
ATTGATGAGT | 0.993 ± 0.04
ATTGATGATT | 0.993 ± 0.0075
ATTGATTAGG | 0.988 ± 0.043
ATTGATTCAA | 0.996 ± 0.02
ATTGATTGCT | 0.9989 ± 0.0036
ATTGATTTTT | 1.01 ± 0.019
ATTGCATTAA | 0.985 ± 0.033
ATTGCGGGCC | 1.02 ± 0.047
ATTGCGGGGA | 0.9848 ± 0.0072
ATTGCTTTTG | 0.99799 ± 0.00028
ATTGGAAGAC | 1.06 ± 0.12
ATTGGACATC | 1.11 ± 0.11
ATTGGAGCGT | 0.986 ± 0.0013
ATTGGAGTAT | 0.9776 ± 0.0089
ATTGGCACGG | 0.986 ± 0.034
ATTGGCTAGG | 0.999 ± 0.037
ATTGGCTGAC | 1.13 ± 0.029
ATTGGCTGGT | 0.9998 ± 0.0052
ATTGGCTTTT | 0.965 ± 0.011
ATTGGGAAGG | 0.965 ± 0.039
ATTGGGATGG | 1 ± 0.014
ATTGGGCAGC | 1 ± 0.027

Sequence | switch fluorescence ratio
ATTGGGGCTT | 1.01 ± 0.018
ATTGGGGGTA | 0.977 ± 0.028
ATTGGGGGTT | 0.978 ± 0.018
ATTGGTAGGG | 0.9858 ± 0.004
ATTGGTGCT | 1.001 ± 0.007
ATTGGTGTAA | 1.01 ± 0.015
ATTGGTTGGT | 0.978 ± 0.048
ATTGTAATTT | 1.01 ± 0.026
ATTGTACGGT | 1.03 ± 0.013
ATTGTAGTCA | 0.973 ± 0.019
ATTGTATTTT | 0.979 ± 0.022
ATTGTGAGGG | 0.993 ± 0.011
ATTGTGGATC | 1.03 ± 0.031
ATTGTGGGGC | 1 ± 0.022
ATTGTGGGGG | 0.991 ± 0.016
ATTGTTATTG | 0.967 ± 0.065
ATTGTTCTGG | 1.004 ± 0.0021
ATTGTTGAAT | 0.993 ± 0.015
ATTGTTGGAT | 1.013 ± 0.0067
ATTGTTTTAC | 1.02 ± 0.014
ATTGTTTTAG | 1.01 ± 0.025
ATTGTTTTCG | 1 ± 0.029
ATTTAAAATG | 0.994 ± 0.033
ATTTAAGGTA | 1.01 ± 0.024
ATTTAATATG | 0.97 ± 0.011

Sequence | switch fluorescence ratio
ATTTAATCCT | 1.09 ± 0.038
ATTTAATCGC | 1.01 ± 0.011
ATTTACAAGT | 1.003 ± 0.0063
ATTTACAGGT | 1.033 ± 0.0098
ATTTACATTA | 1.03 ± 0.021
ATTTACCGGT | 1.03 ± 0.022
ATTTACGGCA | 1.11 ± 0.021
ATTTACGGTG | 1 ± 0.022
ATTTATATCT | 1 ± 0.015
ATTTCACTGA | 1.03 ± 0.011
ATTTCACTTT | 0.9915 ± 0.0085
ATTTCAGAGG | 1.02 ± 0.017
ATTTCAGCGA | 1.09 ± 0.014
ATTTCAGGGG | 1.09 ± 0.061
ATTTCAGGGT | 1 ± 0.015
ATTTCGAATG | 0.9827 ± 0.0076
ATTTCGATAT | 0.979 ± 0.038
ATTTCGATGT | 1.03 ± 0.031
ATTTCGGAGA | 0.971 ± 0.011
ATTTCGGGAG | 1.01 ± 0.052
ATTTCGGTCA | 0.9919 ± 0.0066
ATTTCGTGCG | 1.01 ± 0.061
ATTTCGTTGT | 1 ± 0.07
ATTTCTAGAT | 1.024 ± 0.0093
ATTTCTCTTG | 0.998 ± 0.025

Sequence | switch fluorescence ratio
ATTTGAAGTA | 1.01 ± 0.04
ATTTGACCAT | 1.13 ± 0.18
ATTTGACTTC | 1.12 ± 0.19
ATTTGAGAAA | 1.01 ± 0.025
ATTTGAGGGG | 0.998 ± 0.035
ATTTGAGGTA | 1.01 ± 0.012
ATTTGAGGTG | 1.03 ± 0.038
ATTTGATCTG | 0.985 ± 0.014
ATTTGATTCT | 0.984 ± 0.023
ATTTGATTGT | 0.98 ± 0.034
ATTTGCAAAG | 1.12 ± 0.21
ATTTGCATGG | 1.09 ± 0.2
ATTTGCTCGG | 1.036 ± 0.0097
ATTTGGCGT | 1.01 ± 0.018
ATTTGTATTT | 0.992 ± 0.026
ATTTGTCTGG | 0.9643 ± 0.0028
ATTTGTGAAC | 1.02 ± 0.024
ATTTGTGAGG | 0.9782 ± 0.0093
ATTTGTTCTG | 0.962 ± 0.038
ATTTGTTGCT | 0.981 ± 0.025
ATTTGTTGT | 0.973 ± 0.052
ATTTGTTGTG | 1.01 ± 0.041
ATTTTAATAA | 0.99 ± 0.017
ATTTTAATCG | 0.985 ± 0.03
ATTTTAATGA | 0.934 ± 0.028

Sequence | switch fluorescence ratio
ATTTTACCTC | 1.05 ± 0.13
ATTTTAGCTC | 0.984 ± 0.015
ATTTTATACA | 0.996 ± 0.03
ATTTTATAGT | 1 ± 0.055
ATTTTATGGG | 0.999 ± 0.019
ATTTTATTAT | 1.01 ± 0.024
ATTTTATTCT | 1.003 ± 0.0076
ATTTTCATAT | 0.98 ± 0.021
ATTTTCATTA | 0.996 ± 0.0096
ATTTTCGCAT | 1.19 ± 0.051
ATTTTCTATG | 0.978 ± 0.029
ATTTTCTTAG | 0.999 ± 0.018
ATTTTGAGGT | 0.987 ± 0.018
ATTTTGATTT | 1 ± 0.028
ATTTTGCTCG | 0.999 ± 0.021
ATTTTGCTGG | 0.999 ± 0.011
ATTTTGGCGT | 0.982 ± 0.037
ATTTTGGGTC | 0.991 ± 0.047
ATTTTGGGTG | 1.08 ± 0.049
ATTTTGTTCG | 1.04 ± 0.011
ATTTTGTTTC | 0.987 ± 0.032
ATTTTGTTTT | 1.01 ± 0.061
ATTTTTACAG | 1.03 ± 0.032
ATTTTTACGG | 1.01 ± 0.013
ATTTTTACTT | 0.974 ± 0.032
